We go through four molecules from PMC7529893, “Structural basis for substrate recognition and chemical inhibition of oncogenic MAGE ubiquitin ligases” (Nature Communications, 2020).

Square brackets hold non-standard residues; d marks the D form. Ends that are not written are not given here. Phe(4-CN) = N#Cc1ccc(C[C@H](N)C(=O)O)cc1; Phe(3-Me) = Cc1cccc(C[C@H](N)C(=O)O)c1

In assay [1] the target is T1, GST-MAGE-A11 MHD (human MAGE-A11 MHD amino acid 218-429) (human, UniProt P43364 218-429).
T1 construct: also called recombinant GST-MAGE-A11; source: E. coli BL21(DE3), purified (GSTrap, Resource Q)
T1 sequence (looked up): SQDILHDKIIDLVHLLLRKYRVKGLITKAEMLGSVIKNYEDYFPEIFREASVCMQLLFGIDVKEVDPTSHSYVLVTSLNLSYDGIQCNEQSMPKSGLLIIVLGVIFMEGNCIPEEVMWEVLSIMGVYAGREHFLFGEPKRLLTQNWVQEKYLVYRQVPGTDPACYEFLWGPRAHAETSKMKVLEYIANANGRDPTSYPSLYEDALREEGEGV
Description: AlphaScreen or HTRF; TR-FRET competition: unlabelled peptide titrated against 200 nM FAM-PCF11_4, 5 nM Tb-anti-GST and 5 nM GST-MAGE-A11 MHD; 50 mM Tris pH 7.5, 20 mM MgCl2, 0.1 mg/ml BSA, 1 mM DTT; room temperature (~25 °C), 90 min. The note with it: both partners purified.

Assay [2] concerns the target T2, GST-MAGE-A11 MHD (human MAGE-A11 MHD amino acid 218-429) (human, UniProt P43364 218-429).
T2 chain: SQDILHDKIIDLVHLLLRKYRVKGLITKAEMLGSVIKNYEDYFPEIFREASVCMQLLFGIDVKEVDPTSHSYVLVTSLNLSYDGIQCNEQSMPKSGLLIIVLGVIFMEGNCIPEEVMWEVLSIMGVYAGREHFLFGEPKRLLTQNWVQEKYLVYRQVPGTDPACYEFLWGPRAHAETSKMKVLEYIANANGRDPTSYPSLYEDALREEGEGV
Nature of the assay: FRET.

The target of assay [3] is T3, MAGE-A11 MHD (218-429), as part of the crystallised fusion (human, UniProt P43364 218-429).
T3 construct: In the crystal it follows PCF11 677-701 and the linker GGSGRP (whole chain: m25); also called MAGE-A11 MHD (S218 to C-terminus); source: E. coli BL21(DE3), purified, on one chain with the PCF11 degron
T3 sequence (looked up): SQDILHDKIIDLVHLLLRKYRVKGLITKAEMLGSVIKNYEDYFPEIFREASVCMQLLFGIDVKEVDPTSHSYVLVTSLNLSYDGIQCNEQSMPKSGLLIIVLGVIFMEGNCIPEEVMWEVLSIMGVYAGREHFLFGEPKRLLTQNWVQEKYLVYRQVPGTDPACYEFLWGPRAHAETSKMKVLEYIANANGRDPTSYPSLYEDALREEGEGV
Description: crystal structure; PCF11 677-701 fused by GGSGRP to the N-terminus of MAGE-A11 MHD 218-429; sitting drop, 20 °C, 0.2 M Na acetate, 0.1 M Bis Tris propane pH 7.5, 20% PEG 3350; four protomers in the P 1 cell. The note with it: both partners purified.

B1: PCF11 peptide (FLVVVHQIRQLF*Q) containing 3-methyl-phenylalanine at position 12 (peptide)
peptide: FLVVVHQIRQL[Phe(3-Me)]Q
notes: PCF11 degron, human; the phenylalanine at position 12 (F693) is 3-methyl-phenylalanine; also called 3-methyl-phenylalanine variant; source: synthetic peptide
Broadly, the IC50 is the midpoint of a concentration-inhibition curve. Low values mean inhibition by little substance, high ones a need for much substance. Regarding B1, in assay [1], the IC50 was found to be 1.7 nM.

B2: PCF11 peptide (FLVVVHQIRQLF*Q) containing 4-cyano-phenylalanine at position 12 (peptide)
peptide: FLVVVHQIRQL[Phe(4-CN)]Q
notes: PCF11 degron, human; the phenylalanine at position 12 (F693) is 4-cyano-phenylalanine; also called 4-cyano-phenylalanine variant; source: synthetic peptide
The molecule B2 registered a 50% inhibitory concentration (IC50) in assay [1] of 663 nM.

B3: PCF11 peptide (FLVVVHQIRQLFQ) containing phenylalanine at position 12 (peptide)
peptide: FLVVVHQIRQLFQ
notes: PCF11 degron, human; position +1 is F682 and position +12 is F693; also called model 13 amino acid PCF11 peptide degron; natural PCF11 degron peptide; source: synthetic peptide
B3 gave an IC50 in assay [2] of 60.4 nM. Further, the binding result in assay [1] is on record as “binds”.

B4: PCF11 degron peptide (human PCF11 amino acid 677-701), as part of the crystallised fusion (peptide, UniProt O94913 677-701, looked up)
chain: ITQDDFLVVVHQIRQLFQYQEGVRE
notes: PCF11, human, amino acids 677-701; In the crystal it is joined by the linker GGSGRP to the N-terminus of m27 (whole chain: m25); also called PCF11 peptide; source: E. coli BL21(DE3), purified, on one chain with MAGE-A11 MHD
As to B4, in assay [3], the binding result is on record as “binds”.
